Data from article PMC6595007, “Structural basis for cooperativity of human monoclonal antibodies to meningococcal factor H-binding protein” (Communications Biology, 2019).

Experiments:
Conditions in all cases: both partners purified
[1] = biological target: T1, factor H-binding protein variant 1 (fHbp var.1), recombinant, full length (Neisseria meningitidis, UniProt E6MV22); assay: SPR
T1 construct: source: E. coli BL21 (DE3) Star, pET-21b, purified (HisTrap HP, HiTrap SP HP)

[2] = biological target: T1, factor H-binding protein variant 1 …; assay: negative-stain transmission electron microscopy (single particle, random conical tilt); complexes formed at 1:1 molar ratio, 1 h at room temperature, purified on Superdex 200 Increase; diluted to 0.03 mg/ml in 20 mM Tris, 300 mM NaCl, pH 8; 1% uranyl acetate
[3] = biological target: T1, factor H-binding protein variant 1 …; assay: HDX-MS; 54 pmol antibody mixed with an equimolar amount of fHbp var.1, 30 min at room temperature; exposure 30 s to 30 min; difference counted when above 1 Da
[4] = biological target: T2, human factor H (human, UniProt P08603 19-1231); assay: SPR; ternary complex: fHbp var.1 captured on immobilised mAb 7B10 (CM-5), no second mAb; fH injected at 100 nM, 30 µl/min; HBS-P
T2 construct: also called fH; human fH
T2 sequence (P08603 19-1231): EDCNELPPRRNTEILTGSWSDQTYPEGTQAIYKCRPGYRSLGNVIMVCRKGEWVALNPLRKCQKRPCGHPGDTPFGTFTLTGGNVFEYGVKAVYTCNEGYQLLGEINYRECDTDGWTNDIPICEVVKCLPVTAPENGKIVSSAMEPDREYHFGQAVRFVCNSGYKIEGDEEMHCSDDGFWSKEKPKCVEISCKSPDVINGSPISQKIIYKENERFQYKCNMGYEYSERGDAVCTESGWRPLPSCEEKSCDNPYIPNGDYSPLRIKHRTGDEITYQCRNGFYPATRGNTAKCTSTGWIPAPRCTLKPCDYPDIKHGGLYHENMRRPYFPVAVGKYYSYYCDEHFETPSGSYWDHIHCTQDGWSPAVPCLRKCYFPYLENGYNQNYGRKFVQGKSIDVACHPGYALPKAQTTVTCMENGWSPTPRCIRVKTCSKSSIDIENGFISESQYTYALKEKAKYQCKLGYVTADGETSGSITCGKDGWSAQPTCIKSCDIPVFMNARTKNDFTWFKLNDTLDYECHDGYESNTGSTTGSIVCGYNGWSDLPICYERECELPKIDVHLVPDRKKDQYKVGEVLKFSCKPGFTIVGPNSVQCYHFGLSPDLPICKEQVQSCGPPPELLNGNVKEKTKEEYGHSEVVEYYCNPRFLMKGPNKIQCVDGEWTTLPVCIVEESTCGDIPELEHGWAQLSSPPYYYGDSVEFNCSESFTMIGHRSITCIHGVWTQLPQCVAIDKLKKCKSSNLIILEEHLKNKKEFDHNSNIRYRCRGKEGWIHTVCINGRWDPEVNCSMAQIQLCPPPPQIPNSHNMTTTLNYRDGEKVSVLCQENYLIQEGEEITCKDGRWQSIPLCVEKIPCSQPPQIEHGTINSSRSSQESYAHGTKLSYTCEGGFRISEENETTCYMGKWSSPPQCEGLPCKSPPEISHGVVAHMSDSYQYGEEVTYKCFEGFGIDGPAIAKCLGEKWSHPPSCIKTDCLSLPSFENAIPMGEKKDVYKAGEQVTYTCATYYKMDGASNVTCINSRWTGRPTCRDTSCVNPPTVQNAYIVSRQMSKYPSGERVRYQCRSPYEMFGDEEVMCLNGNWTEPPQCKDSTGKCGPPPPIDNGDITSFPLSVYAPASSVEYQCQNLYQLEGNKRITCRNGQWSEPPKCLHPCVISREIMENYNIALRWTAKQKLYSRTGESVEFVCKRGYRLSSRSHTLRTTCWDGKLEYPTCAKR

[5] = biological target: T2, human factor H; assay: SPR; fHbp var.1 captured on immobilised mAb 7B10, second mAb 1A3 injected, then fH at 100 nM, 30 µl/min; HBS-P
[6] = biological target: T2, human factor H; assay: SPR; ternary complex: fHbp var.1 captured on immobilised mAb 1A12 (CM-5), no second mAb; fH injected at 100 nM, 30 µl/min; HBS-P
[7] = biological target: T2, human factor H; assay: SPR; fHbp var.1 captured on immobilised mAb 1A12, second mAb 1A12 injected (identical, no signal of the second mAb), then fH at 100 nM, 30 µl/min; HBS-P
[8] = biological target: T2, human factor H; assay: SPR; fHbp var.1 captured on immobilised mAb 1A3, second mAb 1A3 injected (identical, no signal of the second mAb), then fH at 100 nM, 30 µl/min; HBS-P
[9] = biological target: T2, human factor H; assay: SPR; quaternary complex: fHbp var.1 captured on immobilised mAb 1A3, second mAb 1A12 injected, then fH at 100 nM, 30 µl/min; HBS-P
[10] = biological target: T2, human factor H; assay: SPR; ternary complex: fHbp var.1 captured on immobilised mAb 1A3 (CM-5), no second mAb; fH injected at 100 nM, 30 µl/min; HBS-P
[11] = biological target: T2, human factor H; assay: SPR; quaternary complex: fHbp var.1 captured on immobilised mAb 1A12, second mAb 1A3 injected, then fH at 100 nM, 30 µl/min; HBS-P
[12] = biological target: T2, human factor H; assay: SPR; quaternary complex: fHbp var.1 captured on immobilised mAb 7B10, second mAb 2C1 injected, then fH at 100 nM, 30 µl/min; HBS-P
[13] = biological target: T2, human factor H; assay: SPR; quaternary complex: fHbp var.1 captured on immobilised mAb 7B10, second mAb 1A12 injected, then fH at 100 nM, 30 µl/min; HBS-P
[14] = biological target: T2, human factor H; assay: SPR; quaternary complex: fHbp var.1 captured on immobilised mAb 1A3, second mAb 2C1 injected, then fH at 100 nM, 30 µl/min; HBS-P
[15] = biological target: T2, human factor H; assay: SPR; fHbp var.1 captured on immobilised mAb 1A12, second mAb 2C1 injected, then fH at 100 nM, 30 µl/min; HBS-P

B1: human monoclonal antibody 1A3 (IgG1) against fHbp (antibody, V domains shown)
VH: EVQLVESGGGLVQPGGSLRLSCAASGFTFSSYAMSWVRQAPGKGLEWVSAISGSGGSSHYTDSVKGRFTISRDNSKNTLWLQMNSLRAEDTAIYYCAKTSGSYYYHYEIDVWGQGTTVTVSS
VL: EIVLTQSPGTLSLSPGERATLSCRASQSVSSSYLAWYQQKPGQAPRLLIYGTSNRATGIPDRFSGSGSGTDFTLTVSRLEPEDFAVYYCQQYGSSPCSFGQGTKLELK
notes: also called mAb1A3; mAb 1A3; source: Expi293 cells, transiently transfected, purified (protein G beads)
B1: binds [1].

B2: antigen-binding fragment of human mAb 2C1 (Fab, V domains shown)
VH: QVQLVESGGGVVQPGRSLRLSCAASGFTFSSFAMHWVRQAPGKGLEWVAVTSFDGKDEYYAASVKGRFSVSRDISKNTVYLQMNSLKTEDTAVYYCAKDRGDWDFDYWGQGTLVTVSS
VL: SYELTQPPSVSVSPGQTATITCSGEKLGDKYTSWYQQKPGQSPVLIIYQDTKRPSGIPARFSGSNSGNTATLTISGTQAVDEADYYCQAWDSYTVPFGGGTKLTVL
notes: also called fAb2C1; huFab 2C1; source: E. coli Rosetta 2, purified (His Gravity Trap, HiTrap SP HP)
B2: binds [2].

B3: human monoclonal antibody 7B10 (IgG1) against fHbp (antibody, V domains shown)
VH: QVQLVESGGGLVQPGGSLRLSCVTSGFTFRSYAMTWVRQAPGKGLEWVSSISHSGGSTKYADSVKGRLTISRDDSMDTLYLQMNSLRAEDTAIYYCAKDQISYPAASPLDYWGRGTLVTVSS
VL: EIVLTQSPGTLSLSPGERATLSCRASQSFSSFSLAWYQQKPGQAPRLLIYAPSNRATGIADRFSGSGSGTDFTLTISRLEPEDFAVYYCQQYGSSPITFGQGTRLEIK
notes: also called mAb7B10; mAb 7B10; source: Expi293 cells, transiently transfected, purified (protein G beads)
B3: binds [3].

B4: human monoclonal antibody 2C1 (IgG1) against fHbp (antibody, V domains shown)
VH: QVQLVESGGGVVQPGRSLRLSCAASGFTFSSFAMHWVRQAPGKGLEWVAVTSFDGKDEYYAASVKGRFSVSRDISKNTVYLQMNSLKTEDTAVYYCAKDRGDWDFDYWGQGTLVTVSS
VL: SYELTQPPSVSVSPGQTATITCSGEKLGDKYTSWYQQKPGQSPVLIIYQDTKRPSGIPARFSGSNSGNTATLTISGTQAVDEADYYCQAWDSYTVPFGGGTKLTVL
notes: also called mAb2C1; mAb 2C1; source: Expi293 cells, transiently transfected, purified (protein G beads)
B4: binds [3].

B5: factor H-binding protein variant 1 (fHbp var.1), recombinant, full length (natural protein)
chain: CSSGGGGVAADIGAGLADALTAPLDHKDKGLQSLTLDQSVRKNEKLKLAAQGAEKTYGNGDSLNTGKLKNDKVSRFDFIRQIEVDGQLITLESGEFQVYKQSHSALTAFQTEQIQDSEHSGKMVAKRQFRIGDIAGEHTSFDKLPEGGRATYRGTAFGSDDAGGKLTYTIDFAAKQGNGKIEHLKSPELNVDLAAADIKPDGKRHAVISGSVLYNQAEKGSYSLGIFGGKAQEVAGSAEVKTVNGIRHIGLAAKQ
notes: source: E. coli BL21 (DE3) Star, pET-21b, purified (HisTrap HP, HiTrap SP HP)
B5 gave a koff [4] of 0.00032 s⁻¹, a koff [5] of 0.00032 s⁻¹ and a koff [6] of 0.0016 s⁻¹. It also gave a koff [7] of 0.0018 s⁻¹, a koff [8] of 0.00074 s⁻¹ and a koff [9] of 0.00035 s⁻¹. It also gave a koff [10] of 0.00074 s⁻¹, a koff [11] of 0.00068 s⁻¹ and a koff [12] of 0.00029 s⁻¹. It also gave a koff [13] of 0.00011 s⁻¹, a koff [14] of 0.00063 s⁻¹ and a koff [15] of 0.043 s⁻¹.

B6: human monoclonal antibody 1A12 (IgG1) against fHbp (antibody, V domains shown)
VH: EVQLVQSGAELKKPGESLKISCKASGYTFTNYWVVWVRQMPGEGLEWMGSIHPRDSDARYSLSFEGRVTFSVDKSTTTAYLQWSSLKVSDSAIYYCARLSQVSGWSPWVGPWGQGTLVTVSS
VL: DIVMTQSPSSLSASVGDRVTITCRASQSISVSLNWYQQKPGKAPKVLIYAASRLQSGIPSRFSGSGSGSHFTLTISSLQPEDFATYYCQETYSDLMYTFGQGTKVEIK
notes: also called mAb1A12; mAb 1A12; source: Expi293 cells, transiently transfected, purified (protein G beads)
B6: binds [1].

B7: antigen-binding fragment of human mAb 7B10 (Fab, V domains shown)
VH: QVQLVESGGGLVQPGGSLRLSCVTSGFTFRSYAMTWVRQAPGKGLEWVSSISHSGGSTKYADSVKGRLTISRDDSMDTLYLQMNSLRAEDTAIYYCAKDQISYPAASPLDYWGRGTLVTVSS
VL: EIVLTQSPGTLSLSPGERATLSCRASQSFSSFSLAWYQQKPGQAPRLLIYAPSNRATGIADRFSGSGSGTDFTLTISRLEPEDFAVYYCQQYGSSPITFGQGTRLEIK
notes: also called fAb7B10; huFab 7B10; source: E. coli Rosetta 2, purified (His Gravity Trap, HiTrap SP HP)
B7: binds [2].
